{"source": "paper doi:10.64898/2025.12.08.693039", "test_system": "LexA (Escherichia coli)", "assay": "EMSA", "details": "0.5 nM DNA or nucleosome, 10 mM Tris-HCl pH 8.0, 130 mM NaCl, 10% glycerol, 0.0075% Tween-20, room temperature, 20 min; 5% native acrylamide gel in 0.3x TBE", "data": [{"substance": "YNN1-LexO naked DNA", "values": [{"measurement": "Kd", "value": "< 5", "unit": "nM"}]}]}
